Laboratory results from PMC10440729 (Journal of the American Chemical Society, 2022).

Tests used:
[1] = tested on: STZ-induced C57BL/6J diabetic mouse model; test: Blood glucose lowering in STZ-induced diabetic mice; format: in vivo; conditions: 5 IU insulin/kg subcutaneous, blood glucose after 4 hours, n = 3
[2] = reported value, cited from earlier work
[3] = DOSY NMR diffusion coefficient / oligomerization state; format: physicochemical; conditions: 4 °C, suggests a mixture of dimers and hexamers

Substance | duration of blood glucose response [1] | reported D of dimers ([2]; insulin dimers) | reported D of hexamers ([2]; insulin hexamers) | diffusion coefficient (D) [3]
2A-S-Ins: discrete 2A IEG polytriazole (all S) conjugated to N-terminus of insulin chain B by SPAAC | longer-lasting effects than Lantus | – | – | –
insulin | – | 1.22 × 10^−6 cm^2/s | 0.87 × 10^−6 cm^2/s | ~ 1 × 10^−6 cm^2/s
